Legend:
[1] = Robotic quantitative screen of E. coli lysates: signal stability (S), sustained enzymatic turnover; assay type: biochemical; details: inverse ratio with reference
Experimental: (§1) One daughter plate is placed in the luminometer and the 1X assay method is used. After the assay, the plate is placed in the ambient incubator, and the second daughter plate is placed in the luminometer. For the second plate, the 0.02X assay method is used. This plate is discarded, and the first plate is returned from the incubator to the luminometer. The repeat assay method is used (i.e., no reagent is injected). Afterwards, the plate is again returned to the ambient incubator.
The plate in the ambient incubator is returned to the luminometer and the repeat assay method is again used. The plate is returned afterwards to the ambient incubator.
The plate in the ambient incubator is returned to the luminometer and the repeat assay method is again used. The plate is discarded afterwards.
(§2) The following criteria were used for screening purposes. The temperature chosen for the enzyme stability parameter was such that the parent enzyme would decay 100 to 1000 fold over 10 hours (see Table 1). Criteria 1 is achieved manually; data for criteria 2-6 is generated by robotic analysis. For all criteria, the maximum value as described is selected. • 1. In vivo screen. The brightest clones are selected at a given temperature. • 2. Expression/specific activity. The value for normalized luminescence is calculated as the ratio of luminescence to optical density. The value is reported as the ratio with the reference value. • 3. Enzyme stability. Measurements of normalized luminescence of the incubated samples (3 taken over about 15 hours) are fitted to In(L)=In(L0)−(t/τ), where L is normalized luminescence and t is time. τ is a measure of the enzyme stability. The value is reported as the ratio with the reference value, and the correlation coefficients are calculated. • 4. Substrate binding. Measurements of normalized luminescence with 1X and 0.02X are taken at the initial reading set, and 1X and 0.06X are taken at the 5 hour set. The ratio of the 0.02X:1X and 0.06X:1X gives the relative luminescence at 0.02X and 0.06X concentrations. These values, along with the relative luminescence at 1X (i.e., 1), are fitted to a Lineweaver-Burk plot to yield the Km:app,total for the substrates ATP, luciferin, and CoA. The values are reported as the inverse ratio with the reference value, and the correlation coefficients are calculated. • 5. Signal stability. The luminescence of the initial IX luminescent reactions are re-measured 3 additional times over about 15 hours. These values are fitted to In(L)=In(L0)−(t/τ) and the integral over t (15 hours) is calculated. Signal stability is then calculated as S=(1−int(L)/L0t)^2. The values are reported as the inverse ratio with the reference value, and the correlation coefficients are calculated. • 6. Composite fitness. The values of criteria 2 through 5 are combined into a single composite value of fitness (or commercial utility). This value is based on a judgment of the relative importance of the other criteria. This judgment is given below:
Calculate signal stability (S): For each sample, use linear regression to fit In(L)=In(L0)[…] using the four luminescence measurements of the initial microplate with 1X substrate concentrations (Plates 1, 3, 4, and 7). Also calculate the regression coefficient. From the calculated values of T and L0, calculate the integral of luminescence by int(L)=τL0(1−exp(−tf/τ)), where tf is the average time of the last measurement (e.g., 15 hours). The signal stability is calculated as S=(1−int(L)/Litf)^2, where Li is the initial measurement of normalized luminescence with 1× substrate concentration (Plate 1).
[Note: To correct for evaporation, an equation S=(1+K−int(L)/Litf)^2, may be used where 1/K=2(relative change of liquid volume at tf).]
Calculate the reference-normalized values: For the criteria parameter of each sample, a reference-normalized value is determined by calculating the ratio or inverse ratio with the respective reference value. […]

[2] = Michaelis-Menten constant for ATP of purified mutants; assay type: biochemical; details: purified enzyme
Text: (§3) Substrate binding was screened by measuring an apparent composite Km (see Example 2) for luciferin and ATP. […] The Km for luciferin rose while the Km for ATP declined (Table 3). The reason for this change is unknown, although it can be speculated that more efficient release of oxyluciferin or luciferin inhibitors could lead to more rapid enzyme turnover.
(§4) Protein purification: Four mutants that are described herein (Luc[T249M], Luc49-7C6, Luc78-0B10, and Luc90-1B5) were purified using a previously published procedure (Hastings et al., 1996).

[3] = Robotic quantitative screen of E. coli lysates: luminescence activity (Li), expression/specific activity; assay type: biochemical; details: relative value
Experimental: A plate containing cells is retrieved from the carousel and placed on the shaker for 3-5 minutes to fully mix the cells. The cells tend to settle from solution upon standing.
To measure Optical Density (O.D.), the plate is moved from the shaker to the locator near the luminometer; the lid is removed and the plate placed into the luminometer. The O.D. is measured using a 620 nm filter.
To prepare a cell lysate, the plate of cells is first retrieved from the refrigerator and mixed on the shaker to resuspend the cells. A new plate from the carousel without a lid is placed in the reagent dispenser and 20 μl of Buffer A is added to each well. This is placed in the pipetting station.
The plate is then moved to the reagent dispenser to add 175 μl of Buffer B, and then mixed on the shaker for about 15 minutes or more. The combination of the freeze/thaw and Buffer B will cause the cells to lyse.
as §1
1X Assay reagent: 5 μM Luciferin; 175 μM ATP; 20 mM Tricine, pH 8.0; 0.1 mM EDTA
as §2
Normalize luminescence data: For each measurement of luminescence in the eight daughter plates, the normalized luminescence is calculated by dividing the relative light units by the optical density of the original plate. […]

[4] = Thermostability (half-life, retained activity) of luciferases incubated in aqueous solution at different temperatures; assay type: physicochemical; details: for thermostability compared with parent enzyme: 4° C., times of less than 15 days (FIG. 49); for half-life: 22° C. (FIGS. 9, 10); for Thermostability Of Luciferase Activity (Half-Life In Hours): purified enzyme
Text: As defined herein, a “thermostable” enzyme, e.g., a luciferase, or an enzyme which has “thermostability”, is an enzyme which under certain conditions, e.g., at certain temperature, in aqueous solution and/or for certain periods of time, has an increased retention of activity relative to a reference enzyme. For example, for a thermostable luciferase, a reference luciferase may be native wild-type luciferase or recombinant wild-type luciferase. Preferably, for beetle luciferases, the activity is luminescence under conditions of saturation with luciferin and ATP. One measure of thermostability of an enzyme is the half-life of the enzyme in an aqueous solution (the time over which 50% of the activity is lost) at a stated temperature.
as §4
[…] Enzyme stability was determined from diluted proteins incubated at different temperatures, and aliquots were removed at different time points. A linear regression of the natural log of the luminescence and time was calculated. Half-life was calculated as the 1n(0.5)/slope of the regression.

[5] = Michaelis-Menten constant for luciferin of purified mutants; assay type: biochemical; details: purified enzyme
Text: as §3, §4

[6] = Robotic quantitative screen of E. coli lysates: enzyme stability (tau) at elevated temperature; assay type: physicochemical; details: relative value
Experimental: Two white assay plates (Labsystems #9502887) are obtained from the plate feeder and placed in the pipetter. The incubation plate from the shaker is placed in the pipetter, and the lid removed and placed on the nearby locator. Two daughter plates are made using the pipetting procedure (see “Create Pair of Daughter Plates from Incubation Plate”). Afterwards, the lid is replaced on the parent plate, and the plate is placed in a high temperature incubator. [ranging from 31° C. to about 65° C. depending on the clone.]
To begin the second set of measurements, the plate from the high temperature incubator is placed in the shaker to mix.
In the final set of measurements, the plate from the high temperature incubator is again placed in the shaker to mix.
as §2
Calculate enzyme stability (τ): For each sample, use linear regression to fit In(L1x)=In(L0)−(t/τ) using the three luminescence measurements with 1X substrate concentrations (Plates 1, 5, 8). Also calculate the regression coefficient.
Calculate the reference-normalized values: For the criteria parameter of each sample, a reference-normalized value is determined by calculating the ratio or inverse ratio with the respective reference value. The reference-normalized values are Li/Lir, τ/τr, Kmr/Km:app,total, and Sr/S, where reference values are calculated from the equations of the appropriate reference surface.
“Enzyme stability” was determined by the rate of activity loss from cell lysates over 10 hours. In successive rounds of evolution the incubation temperature of the lysates was increased.
Robotic Automation: Robotic automation was used in the quantitative screens to accurately perform the large number of required quantitative assays on the cultured cells. […]

[7] = Control is Luc46-2H3 at 54° C. (=1)
[8] = Room Temperature (about 25° C.)
[9] = Control is Luc71-5D4 at 60° C. (=1)

| Molecule | Signal stability (S) [1, 7] | Km [2] [µM] | Luminescence (Li) [3, 7] | thermostability compared with parent enzyme [4] | half-life [4] [days] | Thermostability Of Luciferase Activity (Half-Life In Hours) ([4]; 37° C.) [h] | half-life calculated from regression of log luminescence ([4]; 50° C. (FIG. 7)) [hours] | Thermostability Of Luciferase Activity (Half-Life In Hours) ([4]; 50° C.) [h] | half-life calculated from regression of log luminescence ([4]; 60° C. (FIGS. 6, 8)) [hours] | Thermostability Of Luciferase Activity (Half-Life In Hours) ([4]; 60° C.) [h] | Thermostability Of Luciferase Activity (Half-Life In Hours) [4, 8] [h] | Km [5] [µM] | Enzyme stability (tau) [6, 7] | Signal stability (S) [1, 9] | Luminescence (Li) [3, 9] | half life calculated from regression of log luminescence ([4]; FIG. 5, temperature not given) [hours] | Enzyme stability (tau) [6, 9] |
| --- | --- | --- | --- | --- | --- | --- | --- | --- | --- | --- | --- | --- | --- | --- | --- | --- | --- |
| Luc49-7C6: mutant luciferase, SEQ ID NO:14 (protein, Mutant luciferase) MADKNILYGPEPFYPLADGTAGEQMFYALSRYADISGCIALTNAHTKENVLYEEFLKLSCRLAESFKKYGLKQNDTIAVCSENGLQFFLPIIASLYLGIIAAPVSDKYIERELIHSLGIVKPRIIFCSKNTFQKVLNVKSKLKYVETIIILDLNEDLGGYQCLNNFISQNSDINLDVKKFKPYSFNRDDQVALVMFSSGTTGVSKGVMLTHKNIVARFSLAKDPTFGNAINPTTAILTVIPFHHGFGMMTTLGYFTCGFRVVLMHTFEEKLFLQSLQDYKVESTLLVPTLMAFLAKSALVEKYDLSHLKEIASGGAPLSKEIGEMVKKRFKLNFVRQGYGLTETTSAVLITPNNDVRPGSTGKIVPFHAVKVVDPTTGKILGPNEPGELYFKGDMIMKGYYNNEEATKAIINKDGWLRSGDIAYYDNDGHFYIVDRLKSLIKYKGYQVAPAEIEGILLQHPYIVDAGVTGIPDEAAGELPAAGVVVQTGKYLNEQIVQNFVSSQVSTAKWLRGGVKFLDEIPKGSTGKIDRKVLRQMFEKHTNG | 1.01 | 14 | 1.12 | not distinguishable from the parent enzyme | 64 | 68 | 100.5 | 31 | 2.9 | 6.3 | 430 | 0.99 | 1.9 |  |  |  |  |
| 49-7a5: mutant luciferase, SEQ ID NO:17 (protein, Mutant luciferase) MEDKNILYGPEPFYPLADGTAGEQMFYALSRYADISGCIALTNAHTKENVLYEEFLKLSCRLAESFKKYGLKQNDTIAVCSENGLQFFLPIIASLYLGIIAAPVSDKYIERELIHSLGIVKPRIIFCSKNTFQKVLNVKSKLKYVETIIILDLNEDLGGYQCLNNFISQNSDINLDVKKFKPYSFNRDDQVALVMFSSGTTGVSKGVMLTHKNIVARFSIAKDPTFGNAINPTTAILTVIPFHHGFGMMTTLGYFTCGFRVVLMHTFEEKLFLQSLQDYKVESTLLVPTLMAFLAKSALVEKYDLSHLKEIASGGAPLSKEIGEMVKKRFKLNFVRQGYGLTETTSAVLITPNNDVRPGSTGKIVPFHAVKVVDPTTGKILGPNETGELYFKGDMIMKGYYNNEEATKAIINKDGWLRSGDIAYYDNDGHFYIVDRLKSLIKYKGYQVAPAEIEGILLQHPYIVDAGVTGIPDEAAGELPAAGVVVQTGKYLNEQIVQNFVSSQVSTAKWLRGGVKFLDEIPKGSTGKIDRKVLRQMFEKHTNG | 0.99 |  | 1.08 |  |  |  |  |  |  |  |  |  | 1.44 |  |  |  |  |
| Luc78-0B10: mutant luciferase, SEQ ID NO:19 (protein, Mutant luciferase) MADKNILYGPEPFYPLADGTAGEQMFDALSRYADISGCIALTNAHTKENVLYEEFLKLSCRLAESFKKYGLKQNDTIAVCSENGLQFFLPVIASLYLGIIAAPVSDKYIERELIHSLGIVKPRIIFCSKNTFQKVLNVKSKLKSVETIIILDLNEDLGGYQCLNNFISQNSDSNLDVKKFKPYSFNRDDQVALVMFSSGTTGVPKGVMLTHKNIVARFSLAKDPTFGNAINPTTAILTVIPFHHGFGMMTTLGYFTCGFRVVLMHTFEEKLFLQSLQDYKVESTLLVPTLMAFLAKSALVEKYDLSHLKEIASGGAPLSKEIGEMVKKRFKLNFVRQGYGLTETTSAVLITPKGDARPGSTGKIVPFHAVKVVDPTTGKILGPNEPGELYFKGAMIMKGYYNNEEATKAIIDNDGWLRSGDIAYYDNDGHFYIVDRLKSLIKYKGYQVAPAEIEGILLQHPYIVDAGVTGIPDEAAGELPAAGVVVQTGKYLNEQIVQDFVSSQVSTAKWLRGGVKFLDEIPKGSTGKIDRKVLRQMFEKHTNG |  | 3.4 |  | not distinguishable from the parent enzyme | 109 | 220 |  | 47 | 38 | 15 | 3000 | 1.6 |  | 0.9926 | 1.93 | 144 | 2 |

Source: US8030017B2, “Thermostable luciferases and methods of production” (Promega Corporation, priority 1997, dated 2011)
